# In the Human Domainome abundance scans (Beltran et al. 2025):
# ± gives the uncertainty stated by the source.
# Assay: abundance fitness (aPCA) (normalised: wild type 0, dead -1); higher = more abundant; growth selection in yeast, the domain comes from the species named
# Conditions: Homo sapiens
row,Substance,abundance fitness
1,"NEDD4-like E3 ubiquitin-protein ligase WWP2 T470S, O00308",-0.234 ± 0.036
2,"NEDD4-like E3 ubiquitin-protein ligase WWP2 T471A, O00308",-0.725 ± 0.064
3,"NEDD4-like E3 ubiquitin-protein ligase WWP2 D474M, O00308",-0.224 ± 0.063
4,"NEDD4-like E3 ubiquitin-protein ligase WWP2 P488I, O00308",-0.163 ± 0.069
5,"NEDD4-like E3 ubiquitin-protein ligase WWP2 G478F, O00308",-0.014 ± 0.046
6,"NEDD4-like E3 ubiquitin-protein ligase WWP2 D474N, O00308",-0.332 ± 0.065
7,"NEDD4-like E3 ubiquitin-protein ligase WWP2 L446I, O00308",-0.214 ± 0.081
8,"NEDD4-like E3 ubiquitin-protein ligase WWP2 T455I, O00308",-0.529 ± 0.08
9,"Heterogeneous nuclear ribonucleoprotein U-like protein 2 A39E, Q1KMD3",-0.015 ± 0.064
10,"NEDD4-like E3 ubiquitin-protein ligase WWP2 Y491V, O00308",0 ± 0.038
11,"NEDD4-like E3 ubiquitin-protein ligase WWP2 T455E, O00308",-0.563 ± 0.18
12,"NEDD4-like E3 ubiquitin-protein ligase WWP2 M440D, O00308",-0.138 ± 0.29
13,"NEDD4-like E3 ubiquitin-protein ligase WWP2 T483K, O00308",0.084 ± 0.071
14,"NEDD4-like E3 ubiquitin-protein ligase WWP2 G482R, O00308",-0.097 ± 0.043
15,"NEDD4-like E3 ubiquitin-protein ligase WWP2 T483P, O00308",-0.054 ± 0.071
16,"NEDD4-like E3 ubiquitin-protein ligase WWP2 S456R, O00308",-0.142 ± 0.041
17,"NEDD4-like E3 ubiquitin-protein ligase WWP2 Q485F, O00308",-0.149 ± 0.075
18,"NEDD4-like E3 ubiquitin-protein ligase WWP2 A445N, O00308",0.103 ± 0.073
19,"NEDD4-like E3 ubiquitin-protein ligase WWP2 G489L, O00308",-0.039 ± 0.055
20,"NEDD4-like E3 ubiquitin-protein ligase WWP2 A490L, O00308",-0.047 ± 0.037
21,"NEDD4-like E3 ubiquitin-protein ligase WWP2 R468N, O00308",-0.208 ± 0.08
22,"NEDD4-like E3 ubiquitin-protein ligase WWP2 R468I, O00308",-0.51 ± 0.12
23,"NEDD4-like E3 ubiquitin-protein ligase WWP2 G449P, O00308",-0.937 ± 0.11

row,Substance,abundance fitness
1,"NEDD4-like E3 ubiquitin-protein ligase WWP2 G482S, O00308",-0.025 ± 0.033
2,"NEDD4-like E3 ubiquitin-protein ligase WWP2 E480P, O00308",-0.141 ± 0.062
3,"NEDD4-like E3 ubiquitin-protein ligase WWP2 S456M, O00308",-0.06 ± 0.065
4,"NEDD4-like E3 ubiquitin-protein ligase WWP2 V459P, O00308",-0.878 ± 0.037
5,"Transcription factor SOX-11 K91S, P35716",0.081 ± 0.044
6,"NEDD4-like E3 ubiquitin-protein ligase WWP2 E451I, O00308",-0.503 ± 0.091
7,"NEDD4-like E3 ubiquitin-protein ligase WWP2 T470A, O00308",-0.265 ± 0.035
8,"NEDD4-like E3 ubiquitin-protein ligase WWP2 D474F, O00308",-0.376 ± 0.086
9,"NEDD4-like E3 ubiquitin-protein ligase WWP2 K453Y, O00308",-0.153 ± 0.042
10,"NEDD4-like E3 ubiquitin-protein ligase WWP2 M452E, O00308",0.046 ± 0.046
11,"NEDD4-like E3 ubiquitin-protein ligase WWP2 I441S, O00308",-0.123 ± 0.044
12,"NEDD4-like E3 ubiquitin-protein ligase WWP2 T471V, O00308",-0.546 ± 0.054
13,"NEDD4-like E3 ubiquitin-protein ligase WWP2 D474A, O00308",-0.168 ± 0.037
14,"NEDD4-like E3 ubiquitin-protein ligase WWP2 T470M, O00308",-0.398 ± 0.048
15,"NEDD4-like E3 ubiquitin-protein ligase WWP2 T467I, O00308",-0.421 ± 0.26
16,"NEDD4-like E3 ubiquitin-protein ligase WWP2 K453R, O00308",-0.043 ± 0.045
17,"NEDD4-like E3 ubiquitin-protein ligase WWP2 T470C, O00308",-0.164 ± 0.069
18,"NEDD4-like E3 ubiquitin-protein ligase WWP2 D464F, O00308",-0.903 ± 0.12
19,"NEDD4-like E3 ubiquitin-protein ligase WWP2 I441L, O00308",-0.198 ± 0.054
20,"NEDD4-like E3 ubiquitin-protein ligase WWP2 Y491R, O00308",-0.001 ± 0.033
21,"NEDD4-like E3 ubiquitin-protein ligase WWP2 P447D, O00308",-0.304 ± 0.083
22,"NEDD4-like E3 ubiquitin-protein ligase WWP2 G449R, O00308",-0.14 ± 0.047
